# From patent US20040086512A1 (THOMAS JEFFERSON UNIVERSITY, published 2004)
# B1: VMI1 peptide SNFASITTPRPH (peptide)
# peptide: SNFASITTPRPH
# notes: 12-mer with PXP motif from the Ph.D.-12 library; also called ID; NO: 5
# B2: VMI8 peptide SEPHLPFPVLPH (peptide)
# peptide: SEPHLPFPVLPH
# notes: 12-mer with PXP motif from the Ph.D.-12 library; also called ID; NO: 12
# B3: VMI6 peptide WHSQRLSPVPPA (peptide)
# peptide: WHSQRLSPVPPA
# notes: 12-mer with PXP motif from the Ph.D.-12 library; also called ID; NO: 10
# B4: VMI2 peptide WPTNPTTVPVPS (peptide)
# peptide: WPTNPTTVPVPS
# notes: 12-mer with PXP motif from the Ph.D.-12 library; also called ID; NO: 6
# B5: VMI4 peptide SLHWPVSHPPPP (peptide)
# peptide: SLHWPVSHPPPP
# notes: 12-mer with PXP motif from the Ph.D.-12 library; also called ID; NO: 8
# B6: VMI14 peptide YPAPIKVLLPNS (peptide)
# peptide: YPAPIKVLLPNS
# notes: 12-mer with PXP motif from the Ph.D.-12 library; also called ID; NO: 18
# B7: VMI9 peptide LPLPAPSFHRTT (peptide)
# peptide: LPLPAPSFHRTT
# notes: 12-mer with PXP motif; also called ID; NO: 13
# B8: VMI13 peptide GPPPHHRDYHGP (peptide)
# peptide: GPPPHHRDYHGP
# notes: 12-mer with PXP motif from the Ph.D.-12 library; also called ID; NO: 17
# B9: VMI10 peptide YPLPHPMWSMLP (peptide)
# peptide: YPLPHPMWSMLP
# notes: 12-mer with PXP motif from the Ph.D.-12 library; also called ID; NO: 14
# B10: VMI5 peptide SVSVGMKPSPRP (peptide)
# peptide: SVSVGMKPSPRP
# notes: 12-mer with PXP motif; also called ID; NO: 9
# B11: VMI12 peptide TPLPTIRGDTGT (peptide)
# peptide: TPLPTIRGDTGT
# notes: 12-mer with PXP motif from the Ph.D.-12 library; also called ID; NO: 16
# B12: VMI15 peptide SPYPMALFPLHN (peptide)
# peptide: SPYPMALFPLHN
# notes: 12-mer with PXP motif from the Ph.D.-12 library; also called ID; NO: 19
# B13: VMI16 peptide SPYPSWSTPAGR (peptide)
# peptide: SPYPSWSTPAGR
# notes: 12-mer with PXP motif from the Ph.D.-12 library; also called ID; NO: 20
# B14: VMI7 peptide SNQGGSPLPRSV (peptide)
# peptide: SNQGGSPLPRSV
# notes: 12-mer with PXP motif; also called VM17; ID; NO: 11
# B15: VMI11 peptide TMTPPPTSVRGT (peptide)
# peptide: TMTPPPTSVRGT
# notes: 12-mer with PXP motif from the Ph.D.-12 library; also called ID; NO: 15
# Target: T1, GST-Vif fusion protein (HIV-1 (HIV-1NL4-3), UniProt P12504 1-192)
# T1 construct: range 1-192; Expressed from pGEX in BL21 E. coli, held on glutathione-agarose beads or coated on ELISA plates; also called purified HIV-1 Vif protein; not shown: glutathione-S-transferase encoded by the pGEX vector
# Assay: phage peptide display, phage ELISA on coated GST-Vif
# Experimental: One hundred and fifty μl of 100 μg/ml GST and GST-Vif in 0.1 M NaHCO₃ (pH 8.6) were coated on 96 well microtiter plates respectively and incubated at 4° C. overnight. The plates were blocked with blocking buffer (0.1 M NaHCO₃, pH 8.6, 5 mg/ml BSA) for 2 hr at room temperature. […] After washing, HRP-conjugated anti-M13 antibody was added to bind the phages. After washing, the substrate was added and color development was performed. […] OD at 405 nm equal or larger than 0.15 was considered as positive.
# T1 sequence (P12504 whole entry, the tested form may be a part): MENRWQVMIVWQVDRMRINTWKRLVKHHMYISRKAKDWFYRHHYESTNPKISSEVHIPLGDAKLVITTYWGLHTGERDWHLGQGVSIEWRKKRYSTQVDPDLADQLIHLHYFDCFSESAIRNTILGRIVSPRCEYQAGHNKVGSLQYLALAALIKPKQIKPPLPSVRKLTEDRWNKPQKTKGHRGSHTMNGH
row,Binder,binding result
1,B1,binds
2,B2,binds
3,B3,binds
4,B4,binds
5,B5,binds
6,B6,binds
7,B7,binds
8,B8,binds
9,B9,binds
10,B10,binds
11,B11,binds
12,B12,binds
13,B13,binds
14,B14,binds
15,B15,binds
